Source: article PMC9242963, “FFF-based high-throughput sequence shortlisting to support the development of aptamer-based analytical strategies”

Target: lysozyme (UniProt P00698 19-147)
Test: AF4-UV (asymmetrical flow field-flow fractionation); concentration-dependent; among highest affinity with A80; PBS-Mg2+ buffer (also mobile phase; composition, pH and temperature not given in the material); 10 uL of 5 uM aptamer + 10 uL of 5, 10, 25 or 50 uM protein (1:1 to 1:10); detection at 260 nm; n = 3
Settings: protein: commercial; label: none

lysozyme, sequence (P00698 19-147): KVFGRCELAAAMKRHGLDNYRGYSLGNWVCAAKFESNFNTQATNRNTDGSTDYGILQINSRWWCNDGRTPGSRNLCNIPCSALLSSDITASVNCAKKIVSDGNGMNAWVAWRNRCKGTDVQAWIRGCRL

GCAGCTAAGCAGGCGGCTCACAAAACCATTCGCATGCGGC (ssDNA) [A40]
binding result: binds
